The values that follow come from article PMC11413682, “SARS-CoV-2 ORF10 hijacking ubiquitination machinery reveals potential unique drug targeting sites” (Acta Pharmaceutica Sinica. B, 2024).

The assay deals with T1, CUL2^ZYG11B (residues 490–728) (human, UniProt Q9C0D3 490-728).
T1 construct: human ZYG11B, substrate receptor of the cullin-2 RING E3 ligase; ARM3–ARM8 repeats, residues 490–728; also called CUL2^ZYG11B(490–728); ARM3–ARM8; source: E. coli, purified (Ni-NTA, TEV cleavage, HiTrap Q HP, gel filtration); not shown: His6, N-terminal, cleaved; SUMO, N-terminal, cleaved
T1 sequence (Q9C0D3 490-728): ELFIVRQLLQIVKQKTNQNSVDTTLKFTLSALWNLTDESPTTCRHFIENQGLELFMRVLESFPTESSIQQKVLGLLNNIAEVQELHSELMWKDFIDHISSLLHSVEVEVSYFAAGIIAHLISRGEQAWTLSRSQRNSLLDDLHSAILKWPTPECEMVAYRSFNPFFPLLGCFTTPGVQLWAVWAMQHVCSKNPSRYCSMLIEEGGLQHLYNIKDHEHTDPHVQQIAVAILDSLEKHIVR
Put plainly: ITC; MicroCal iTC200; peptides (0.5–1 mmol/L) in the syringe, CUL2^ZYG11B(490–728) (0.03 mmol/L) in the cell; 18 injections of 2 μL; repeated 3 times. The settings on record: both partners purified. Background: In ITC the heat of successive injections is recorded.

B1: SARS-CoV-2 ORF10 N5 peptide (peptide)
peptide: GYINV
notes: first five residues of the SARS-CoV-2 ORF10 N-terminal extension; also called five-residue peptide; source: synthetic peptide
Turning to B1, the Kd came out at 2940 nM.

By Kd is commonly meant the constant that tells how readily two partners part at equilibrium.
